Where only a bound is given, the exact number is not on record here.

A word on the Kd: it is the concentration at which binding is half-saturated.

This experiment concerns the target T1, BG505 SOSIP.D664 (HIV-1 isolate BG505 (clade A), stabilised).
T1 construct: also called BG505.SOSIP.664; source: HEK 293F, co-transfected with furin, purified (HisTrap, SEC); copies: 3 + 3
The experiment can be described thus: SPR; IgG captured as ligand by anti-human IgG (Human Antibody Capture Kit) on a GLC chip, ProteOn XPR36; trimer as analyte; 1x HBS-EP+ pH 7.4 with 1 mg/ml BSA; 1:1 binding model; highest SOSIP concentration 5 uM or 10 uM. Conditions: both partners purified. (In SPR one partner is held on a chip, and binding of the other changes the refractive index at the surface.)

B1: PG9.iGL (antibody, V domains shown)
VH: QVQLVESGGGVVQPGRSLRLSCAASGFTFSSYGMHWVRQAPGKGLEWVAVISYDGSNKYYADSVKGRFTISRDNSKNTLYLQMNSLRAEDTAVYYCAREAGGPDYRNGYNYYDFWSGYYYYYYMDVWGKGTTVTVSS
VL: QSALTQPASVSGSPGQSITISCTGTSSDVGGYNYVSWYQQHPGKAPKLMIYEVSNRPSGVSNRFSGSKSGNTASLTISGLQAEDEADYYCSSYTSSSTVVFGGGTKLTVL
Turning to B1, the Kd was > 5 µM.

B2: PCT64.13C (antibody, V domains shown)
VH: EVQLVESGGGLVKPGGSLRLSCAASGFTFTNAWLDWVRQAPGKGLEWVGRIKSKTDGGTTDHAAPVKGRFTISRDDSKNTVYLQMNSLKIEDTAVYYCTTGVETYDFWSGYDDHYYDYYFKDVWGKGTTVTVSS
VL: EIVLTQSPGTLSLSPGERATLSCRASQSVSNNYLAWYQQKPGQAPRLLIYGASSRATGIPDRFSGSGSGTDFTLTISRLEPEDFAVYYCQQSARSFTFGPGTKVDIK
As to B2, the Kd was > 5 µM.

These data come from PMC9671094 (Immunity, 2022).
